{"source": "paper PMC5662623", "key": {"adaptor protein AP-3": {"biological_target": "adaptor protein AP-3", "experiment": "GST pull-down from rat brain lysate, immunoblot band intensity quantification (anti-β-NAP)", "conditions": "at least three independent experiments; parent: est. 1.0; read off a plot"}, "adaptor protein AP-1": {"biological_target": "adaptor protein AP-1", "experiment": "GST pull-down from rat brain lysate, immunoblot band intensity quantification (anti-adaptin γ)", "conditions": "at least three independent experiments; parent: est. 1.0; read off a plot"}}, "data": [{"substance": "GST fusion of the WT VGLUT2 C-terminus F518G; I519G", "values": [{"measurement": "ratio to parent", "setting": "adaptor protein AP-3", "value": 0.33}, {"measurement": "ratio to parent", "setting": "adaptor protein AP-1", "value": 0.59}]}]}
